This is an account of results in publication doi:10.1101/2020.01.16.909549.

The target of this series is T1, Rad4 Δβ-hairpin3 crosslinking construct (<SC41B>);Rad23 (crystal) (Saccharomyces cerevisiae?;Saccharomyces …, UniProt P14736;P32628 101-632;230-398, V131C;C132S;del599-605|).
T1 sequence 1: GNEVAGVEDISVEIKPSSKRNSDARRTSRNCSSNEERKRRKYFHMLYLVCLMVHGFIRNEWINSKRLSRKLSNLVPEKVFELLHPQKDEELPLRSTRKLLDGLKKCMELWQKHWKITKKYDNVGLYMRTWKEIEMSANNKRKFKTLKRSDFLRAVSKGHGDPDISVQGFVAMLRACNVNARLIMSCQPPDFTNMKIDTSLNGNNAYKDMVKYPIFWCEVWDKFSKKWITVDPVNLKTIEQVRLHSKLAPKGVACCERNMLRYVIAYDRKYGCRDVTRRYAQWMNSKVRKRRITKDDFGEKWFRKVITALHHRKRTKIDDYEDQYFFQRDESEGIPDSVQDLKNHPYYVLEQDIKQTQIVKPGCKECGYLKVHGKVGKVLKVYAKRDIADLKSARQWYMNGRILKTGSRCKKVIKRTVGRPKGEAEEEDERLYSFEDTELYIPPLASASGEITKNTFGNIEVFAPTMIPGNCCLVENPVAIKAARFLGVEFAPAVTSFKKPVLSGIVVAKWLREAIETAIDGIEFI
T1 sequence 2: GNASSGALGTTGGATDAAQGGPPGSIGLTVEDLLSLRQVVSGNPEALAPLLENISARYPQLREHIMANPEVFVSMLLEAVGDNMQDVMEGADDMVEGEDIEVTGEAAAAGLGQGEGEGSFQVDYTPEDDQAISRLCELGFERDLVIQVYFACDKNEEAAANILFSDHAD
As to the kind of experiment: X-ray crystallography.

B1: CGC/GCG 23-bp crystal DNA (CH9c) (dsDNA)
DNA 1: TTGACTCGACATCGCGCGCTACA
DNA 2: ATGTAGCGCGCGATGTCGAGTCA
modifications: disulfide (cystamine)-tethered dG* at top strand position 8, from 2-F-dI
For the molecule B1, the binding result is listed as “binds”.
